Reference: patent publication US20220153832A1 (PIONYR IMMUNOTHERAPEUTICS, published 2022)
One block for each binder: values may come before it.

Key:
[1] = target: T1, Human Macrophage Receptor with Collagenous Structure (MARCO), full length, on cells (human, UniProt Q9UEW3 1-520); assay: cell-based competition with AF488 E. coli binding to cells expressing MARCO
T1 construct: the cell type is named under assay; also called huMARCO; HuMARCO
T1 sequence: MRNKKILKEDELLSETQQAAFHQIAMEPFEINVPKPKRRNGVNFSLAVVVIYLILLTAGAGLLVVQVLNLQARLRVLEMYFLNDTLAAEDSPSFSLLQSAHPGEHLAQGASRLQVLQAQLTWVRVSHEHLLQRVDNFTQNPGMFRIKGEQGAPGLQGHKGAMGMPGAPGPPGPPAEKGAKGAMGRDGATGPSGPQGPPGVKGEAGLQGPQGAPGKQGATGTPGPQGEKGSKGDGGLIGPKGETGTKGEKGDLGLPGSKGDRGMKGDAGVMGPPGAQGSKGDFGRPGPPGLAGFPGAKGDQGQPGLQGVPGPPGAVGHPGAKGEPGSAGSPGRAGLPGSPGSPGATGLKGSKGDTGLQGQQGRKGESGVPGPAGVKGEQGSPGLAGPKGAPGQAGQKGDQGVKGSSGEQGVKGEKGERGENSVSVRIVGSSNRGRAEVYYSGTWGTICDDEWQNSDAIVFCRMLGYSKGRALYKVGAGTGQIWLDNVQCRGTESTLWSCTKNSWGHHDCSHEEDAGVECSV
Procedure: Zombie NIR viability dye (BioLegend), prepared by diluting the stock 1000-fold in D-PBS, was added to the cells and incubated for 10 min at RT in the dark. The reaction was quenched by adding 1 m of 4× Staining buffer (2% FBS in DBPS containing Ca2+), followed by centrifugation at 400×g for 5 min at 4° C. Cells were then plated in V-shaped 96 well plates at a density of 100,000 cells. A488-fluorescently labeled bacteria (E. coli from Invitrogen) was added at 10 μg/ml with the anti-human MARCO antibodies of interest for a 30 min incubation at 37 C. Plates were then washed twice followed by resuspension in 100 ul of staining buffer for acquisition on the flow cytometer (Attune NxT, Life Technologies). Flow cytometry data were analyzed using FlowJo software (version 10.6.1) and data were processed and further analyzed in Microsoft Excel and GraphPad Prism software (version 8).

[2] = target: T2, Cynomolgus MARCO, full length, on cells (cynomolgus, UniProt A0A2K5X0Z2 1-519); assay: flow cytometry, 293T CyMARCO cells
T2 construct: whole, on cells; also called cyno MARCO; CyMARCO
T2 sequence: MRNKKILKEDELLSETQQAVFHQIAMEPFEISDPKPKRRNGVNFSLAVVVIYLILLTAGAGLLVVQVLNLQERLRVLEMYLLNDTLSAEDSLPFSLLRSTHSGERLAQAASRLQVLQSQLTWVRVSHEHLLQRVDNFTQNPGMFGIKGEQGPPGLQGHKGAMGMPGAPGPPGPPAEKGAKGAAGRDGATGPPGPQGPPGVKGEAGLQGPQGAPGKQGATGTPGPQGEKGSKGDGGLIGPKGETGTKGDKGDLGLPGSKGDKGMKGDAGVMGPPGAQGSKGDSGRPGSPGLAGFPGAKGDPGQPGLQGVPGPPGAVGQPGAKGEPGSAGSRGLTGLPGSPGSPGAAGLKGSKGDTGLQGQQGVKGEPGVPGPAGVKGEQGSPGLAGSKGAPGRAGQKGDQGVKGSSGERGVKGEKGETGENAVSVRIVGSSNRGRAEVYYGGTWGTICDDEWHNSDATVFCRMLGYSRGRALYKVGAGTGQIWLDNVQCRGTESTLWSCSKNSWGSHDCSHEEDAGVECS
Procedure, shortened: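 Binding to HEK293T cells expressing human or cynomolgus MARCO was measured by flow cytometry at 100,000 cells/well after Zombie NIR viability staining. Antibodies started at 100 nM in an 8-point three-fold dilution in D-PBS/2% FBS/2 mM EDTA for 1 hr on ice, then APC goat anti-mouse IgG for 30 min on ice. Cells were acquired on an Attune NxT. Geometric mean fluorescence intensities were analysed in FlowJo and Prism.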

[3] = target: T1, Human Macrophage Receptor with …; assay: flow cytometry, 293T (HuMARCO)
Procedure: Supernatants were removed and cell pellets were resuspended in Ca²⁺+ and Mg²⁺+ Dulbecco's phosphate-buffered saline (D-PBS) at 1×10⁶ cells/ml. 100,000 cells/well were plated onto U-bottom 96-well plates for staining and all centrifugation steps were performed at 1500 rpm at 4° C. for 5 min and samples were kept protected from light throughout the protocol. Cells were pelleted and resuspended in 100 μl of Zombie NIR viability dye (BioLegend) prepared by diluting Zombie NIR dimethyl sulfoxide (DMSO) stock 1000-fold in D-PBS. […] Flow cytometry data were analyzed using FlowJo software (version 10.6.1) and data were processed and further analyzed in Microsoft Excel and GraphPad Prism software (version 8). Half-maximal effective concentrations (EC₅₀) were calculated based on geometric mean fluorescence intensities (gMFI). In case when the plates were not able to be analyzed on the cytometer, cells were pelleted after the washes and fixed in 100 μl of 2% paraformaldehyde (PFA), prepared by diluting the 16% (w/v) stock (Thermo Fisher) in DPBS, for 15 min at RT. […]

[4] = target: T1, Human Macrophage Receptor with …; assay: flow cytometry, 293T (HuMARCO); remark: listed apart in the source
Procedure: Supernatants were removed and cell pellets were resuspended in Ca²⁺+ and Mg²⁺+ Dulbecco's phosphate-buffered saline (D-PBS) at 1×10⁶ cells/ml. 100,000 cells/well were plated onto U-bottom 96-well plates for staining and all centrifugation steps were performed at 1500 rpm at 4° C. for 5 min and samples were kept protected from light throughout the protocol. Cells were pelleted and resuspended in 100 μl of Zombie NIR viability dye (BioLegend) prepared by diluting Zombie NIR dimethyl sulfoxide (DMSO) stock 1000-fold in D-PBS. Cells were stained by incubation for 10 min at room temperature (RT) in the dark, followed by quenching the staining reaction with the addition of 100 μl of Staining Medium (D-PBS containing 2% FBS and 2 mM ethylenediaminetetraacetic acid (EDTA). Cells were pelleted and resuspended in 100 μl of the different antibodies and hybridomas supernatants needed for screening and corresponding isotype controls in freshly prepared staining medium, such as PI-M014 and mIgG2b isotype. All mAbs were tested at the final top concentration of 100 nM (15 μg/ml) followed by an 8-point three-fold serial dilution, including 0 mg/ml control. Staining was carried out for 1 hour (hr) on ice, followed by 2 washes in Staining Medium. Cells were then pelleted and resuspended in 100 μl of allophycocyanin (APC)-conjugated goat anti-mouse IgG (Fc-specific) secondary antibody, prepared by 500-fold dilution of the antibody stocks in Staining Medium, and incubated for 30 min on ice. Plates were then washed two times with Staining Medium, followed by resuspension in 150 μl of the same buffer for acquisition on the flow cytometer (Attune NxT, Life Technologies). Flow cytometry data were analyzed using FlowJo software (version 10.6.1) and data were processed and further analyzed in Microsoft Excel and GraphPad Prism software (version 8). Half-maximal effective concentrations (EC₅₀) were calculated based on geometric mean fluorescence intensities (gMFI). In case when the plates were not able to be analyzed on the cytometer, cells were pelleted after the washes and fixed in 100 μl of 2% paraformaldehyde (PFA), prepared by diluting the 16% (w/v) stock (Thermo Fisher) in DPBS, for 15 min at RT. Cells were then pelleted and the fixative was removed, followed by resuspension in 150 μl of Staining Medium and stored at 4° C. until acquisition on the flow cytometer.

B1: PI-3015-AB (antibody, human IgG1, kappa)
heavy: not shown
light: DIQMTQSPSSLSASVGDRVTITCRASEGISNDLAWYQQKPGKAPKLLIYAASRLQSGVPSRFSGSGSGTDYTLTISSMQPEDFATYYCQQSYKYPLTFGQGTKLEIKRTVAAPSVFIFPPSDEQLKSGTASVVCLLNNFYPREAKVQWKVDNALQSGNSQESVTEQDSKDSTYSLSSTLTLSKADYEKHKVYACEVTHQGLSSPVTKSFNRGEC
- EC50 [1]: 0.5 nM

B4: PI-HX-3031 (antibody)
heavy: QVQLKESGPGLVQPSQTLSLTCTVSGFSLTSYHVSWVRQPPGKGLEWMGAIWTGGSIAYNSLLKSRLSISRDTSKSQVFLKMNSLQTEDTATYYCARDLSDYYSSYTSFDYWGQGVMVTVSTAETTAPSVYPLAPGTALKSNSMVTLGCLVKGYFPEPVTVTWNSGALSSGVHTFPAVLQSGLYTLTSSVTVPSSTWSSQAVTCNVAHPASSTKVDKKIVPRECNPCGCTGSEVSSVFIFPPKTKDVLTITLTPKVTCVVVDISQNDPEVRFSWFIDDVEVHTAQTHAPEKQSNSTLRSVSELPIVHRDWLNGKTFKCKVNSGAFPAPIEKSISKPEGTPRGPQVYTMAPPKEEMTQSQVSITCMVKGFYPPDIYTEWKMNGQPQENYKNTPPTMDTDGSYFLYSKLNVKKETWQQGNTFTCSVLHEGLHNHHTEKSLSHSP
light: DIQMTQSPASLSTSLGETVSIECLASEGISNDLAWYQQKSGKSPQLLIYAASRLQDGVPSRFSGSGSGTRYSLKISGMQPEDEADYFCQQSYKYPLTFGSGTKLEIKRADAAPTVSIFPPSTEQLATGGASVVCLMNNFYPRDISVKWKIDGTERRDGVLDSVTDQDSKDSTYSMSSTLSLTKADYESHNLYTCEVVHKTSSSPVVKSFNRNEC
notes: Parental rat hybridoma, rat IgG2a
- EC50 [3]: 0.56 nM
- EC50 [4]: 0.141 nM

B6: PI-HX-3061 (antibody, rat IgG2a)
heavy: EVQLVESGGGLVQPGSSLKLSCVASKFTFSNYGMNWIRQAPKKGLEWIALIYYNSNNKYYADSVKGRFTISRDNSKNTLYLEMNSLRSEDTAMYYCAKSLTGGSDYFDSWGQGVMVTVSSAETTAPSVYPLAPGTALKSNSMVTLGCLVKGYFPEPVTVTWNSGALSSGVHTFPAVLQSGLYTLTSSVTVPSSTWPSQTVTCNVAHPASSTKVDKKIVPRNCGGDCKPCICTGSEVSSVFIFPPKPKDVLTITLTPKVTCVVVDISQDDPEVHFSWFVDDVEVHTAQTRPPEEQFNSTFRSVSELPILHQDWLNGRTFRCKVTSAAFPSPIEKTISKPEGRTQVPHVYTMSPTKEEMTQNEVSITCMVKGFYPPDIYVEWQMNGQPQENYKNTPPTMDTDGSYFLYSKLNVKKEKWQQGNTFTCSVLHEGLHNHHTEKSLSHSP
light: DVQMTQSPSYLAASPGESVSISCKASKSIGTFLAWYQEKPEKTNKLLIYSGSTLQSGTPSRFSGSGSGTDFTLTIRNLEPEDFAVYYCQQHDEYPFTFGSGTKLEIKRADAAPTVSIFPPSTEQLATGGASVVCLMNNFYPRDISVKWKIDGTERRDGVLDSVTDQDSKDSTYSMSSTLSLTKADYESHNLYTCEVVHKTSSSPVVKSFNRNEC
notes: Parental rat hybridoma, rat IgG2a; cross reactive with human and mouse MARCO
- EC50 [3]: 0.49 nM
- EC50 [4]: 0.49 nM

Results, then the binder that gave them:

- binding result [2]: no binding
B2: PI-HX-3021 (antibody, V domains shown)
VH: QVRLVQSGTALVRPGASVRMSCTASGYSFTDYWVSWVKQSHGQSLEWIGEIYPNSGTTNFNEKFEGKATLTVDKSTSTAYMELSRLTSEDSAIYYCTGEGTFDYWGQGVMVTVSS
VL: EIVLTQSPTTMAASPGEKVTITCRPSSSLSNMHWFQQKSGTSPKPWIYDTSKLASGVPDRFSGSGSGTSYSLTISSMEAEDAATYYCLQRSSYPPTFGAGTKLELK
notes: Rat IgG2a hybridoma antibody; Not the effector dead PI-3021; also called PI-3007 (name of the recombinant form)

- binding result [2]: no binding
B3: PI-HX-3016 (antibody, rat IgG1, V domains shown)
VH: EVQLVESGGGLVKPGASLKLSCVASGFTFSDDWMNWVRQTPGKAMEWIGDIKYDGSYTNYVPSLKNRLTISRDNAKNTLYLQMTNVRSEDTATYYCTSGGVFDYWGQGVMVTVSS
VL: EIVLSQSPTTMAASPGEKVTITCRASSSVSYMHWFQQKSGTSPKPWIYDTSKLASGVPDRFSGSGSGTSYSLTISSMEAEDAATYYCLQRSGYPPTFGAGTKLEVK
notes: Rat IgG1 hybridoma antibody

- EC50 [4]: 0.438 nM
B5: PI-HX-3043 (antibody, rat IgG2a)
heavy: QVNLLQSRAALVKPGASVKLSCKASGYTFTDYYLHWVKQSHAKSLEWIGYINPNNAYTSYNEKFKSKATLTVDKSTNTAYMELSRLTSADSATYYCARDTTDYYNLHFAYWGQGTLVTVSSAETTAPSVYPLAPGTALKSNSMVTLGCLVKGYFPEPVTVTWNSGALSSGVHTFPAVLQSGLYTLTSSVTVPSSTWSSQAVTCNVAHPASSTKVDKKIVPRECNPCGCTGSEVSSVFIFPPKTKDVLTITLTPKVTCVVVDISQNDPEVRFSWFIDDVEVHTAQTHAPEKQSNSTLRSVSELPIVHRDWLNGKTFKCKVNSGAFPAPIEKSISKPEGTPRGPQVYTMAPPKEEMTQSQVSITCMVKGFYPPDIYTEWKMNGQPQENYKNTPPTMDTDGSYFLYSKLNVKKETWQQGNTFTCSVLHEGLHNHHTEKSLSHSP
light: DIQMTQSPASLSASLGETVSIECLTSEGISNDLAWYQQKSGKSPQLLIYDASRLEDGVPSRFSGSGSGTRYSLKISGMQTEDEADYFCQQSYKYPLTFGSGTKLEIKRADAAPTVSIFPPSTEQLATGGASVVCLMNNFYPRDISVKWKIDGTERRDGVLDSVTDQDSKDSTYSMSSTLSLTKADYESHNLYTCEVVHKTSSSPVVKSFNRNEC
notes: as for B4

- EC50 [1]: 0.44 nM
B7: PI-3010-AB (antibody, human IgG1, kappa)
heavy: not shown
light: DIQMTQSPASLSTSLGETVSIECLASEGISNDLAWYQQKSGKSPQLLIYAASRLQDGVPSRFSGSGSGTRYSLKISGMQPEDEADYFCQQSYKYPLTFGSGTKLEIKRTVAAPSVFIFPPSDEQLKSGTASVVCLLNNFYPREAKVQWKVDNALQSGNSQESVTEQDSKDSTYSLSSTLTLSKADYEKHKVYACEVTHQGLSSPVTKSFNRGEC
